This note sets out measurements from patent US20140080757A1 (ZEALAND PHARMA A S, published 2014).

Sequences and labels used below:
T1: endogenous GLP-1 receptor of a murine insulinoma cell line (murine, UniProt O35659 22-463)
T1 sequence (looked up): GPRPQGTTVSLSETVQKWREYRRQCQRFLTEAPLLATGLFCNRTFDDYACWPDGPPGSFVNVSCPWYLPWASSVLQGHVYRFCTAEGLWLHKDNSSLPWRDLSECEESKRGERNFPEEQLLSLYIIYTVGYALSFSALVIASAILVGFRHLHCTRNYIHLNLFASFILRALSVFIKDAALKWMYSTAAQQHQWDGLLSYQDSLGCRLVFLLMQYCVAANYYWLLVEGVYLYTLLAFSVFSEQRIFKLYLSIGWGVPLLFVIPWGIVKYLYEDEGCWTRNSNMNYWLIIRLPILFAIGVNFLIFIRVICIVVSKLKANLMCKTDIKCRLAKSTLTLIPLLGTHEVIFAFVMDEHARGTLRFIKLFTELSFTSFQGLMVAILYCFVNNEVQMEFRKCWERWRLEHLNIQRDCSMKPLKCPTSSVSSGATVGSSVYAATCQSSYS

B1: Compound 18 (peptide)
peptide: H-HSHGTFTSDYSKYLEEK([γGlu-Palmitoyl])AAHEFIEWLESA-OH
SMILES: CCCCCCCCCCCCCCCC(=O)N[C@@H](CCC(=O)NCCCC[C@H](NC(=O)[C@H](CCC(=O)O)NC(=O)[C@H](CCC(=O)O)NC(=O)[C@H](CC(C)C)NC(=O)[C@H](Cc1ccc(O)cc1)NC(=O)[C@H](CCCCN)NC(=O)[C@H](CO)NC(=O)[C@H](Cc1ccc(O)cc1)NC(=O)[C@H](CC(=O)O)NC(=O)[C@H](CO)NC(=O)[C@@H](NC(=O)[C@H](Cc1ccccc1)NC(=O)[C@@H](NC(=O)CNC(=O)[C@H](Cc1c[nH]cn1)NC(=O)[C@H](CO)NC(=O)[C@@H](N)Cc1c[nH]cn1)[C@@H](C)O)[C@@H](C)O)C(=O)N[C@@H](C)C(=O)N[C@@H](C)C(=O)N[C@@H](Cc1c[nH]cn1)C(=O)N[C@@H](CCC(=O)O)C(=O)N[C@@H](Cc1ccccc1)C(=O)N[C@H](C(=O)N[C@@H](CCC(=O)O)C(=O)N[C@@H](Cc1c[nH]c2ccccc12)C(=O)N[C@@H](CC(C)C)C(=O)N[C@@H](CCC(=O)O)C(=O)N[C@@H](CO)C(=O)N[C@@H](C)C(=O)O)[C@@H](C)CC)C(=O)O
B2: Compound 19 (peptide)
peptide: H-H[Aib]HGTFTSDYSKYLEEK([γGlu-Palmitoyl])AAHEFVEWLESA-NH2
SMILES: CCCCCCCCCCCCCCCC(=O)N[C@@H](CCC(=O)NCCCC[C@H](NC(=O)[C@H](CCC(=O)O)NC(=O)[C@H](CCC(=O)O)NC(=O)[C@H](CC(C)C)NC(=O)[C@H](Cc1ccc(O)cc1)NC(=O)[C@H](CCCCN)NC(=O)[C@H](CO)NC(=O)[C@H](Cc1ccc(O)cc1)NC(=O)[C@H](CC(=O)O)NC(=O)[C@H](CO)NC(=O)[C@@H](NC(=O)[C@H](Cc1ccccc1)NC(=O)[C@@H](NC(=O)CNC(=O)[C@H](Cc1c[nH]cn1)NC(=O)C(C)(C)NC(=O)[C@@H](N)Cc1c[nH]cn1)[C@@H](C)O)[C@@H](C)O)C(=O)N[C@@H](C)C(=O)N[C@@H](C)C(=O)N[C@@H](Cc1c[nH]cn1)C(=O)N[C@@H](CCC(=O)O)C(=O)N[C@@H](Cc1ccccc1)C(=O)N[C@H](C(=O)N[C@@H](CCC(=O)O)C(=O)N[C@@H](Cc1c[nH]c2ccccc12)C(=O)N[C@@H](CC(C)C)C(=O)N[C@@H](CCC(=O)O)C(=O)N[C@@H](CO)C(=O)N[C@@H](C)C(N)=O)C(C)C)C(=O)O
B3: Compound 17 (peptide)
peptide: H-H[Aib]HGTFTSDYSKYLESK([γGlu-Palmitoyl])AAEEFIEWLESA-OH
SMILES: CCCCCCCCCCCCCCCC(=O)N[C@@H](CCC(=O)NCCCC[C@H](NC(=O)[C@H](CO)NC(=O)[C@H](CCC(=O)O)NC(=O)[C@H](CC(C)C)NC(=O)[C@H](Cc1ccc(O)cc1)NC(=O)[C@H](CCCCN)NC(=O)[C@H](CO)NC(=O)[C@H](Cc1ccc(O)cc1)NC(=O)[C@H](CC(=O)O)NC(=O)[C@H](CO)NC(=O)[C@@H](NC(=O)[C@H](Cc1ccccc1)NC(=O)[C@@H](NC(=O)CNC(=O)[C@H](Cc1c[nH]cn1)NC(=O)C(C)(C)NC(=O)[C@@H](N)Cc1c[nH]cn1)[C@@H](C)O)[C@@H](C)O)C(=O)N[C@@H](C)C(=O)N[C@@H](C)C(=O)N[C@@H](CCC(=O)O)C(=O)N[C@@H](CCC(=O)O)C(=O)N[C@@H](Cc1ccccc1)C(=O)N[C@H](C(=O)N[C@@H](CCC(=O)O)C(=O)N[C@@H](Cc1c[nH]c2ccccc12)C(=O)N[C@@H](CC(C)C)C(=O)N[C@@H](CCC(=O)O)C(=O)N[C@@H](CO)C(=O)N[C@@H](C)C(=O)O)[C@@H](C)CC)C(=O)O
B4: Compound 16 (peptide)
peptide: H-H[Aib]QGTFTSDYSKYLDSK([γGlu-Palmitoyl])AAEDFVEWLESA-NH2
SMILES: CCCCCCCCCCCCCCCC(=O)N[C@@H](CCC(=O)NCCCC[C@H](NC(=O)[C@H](CO)NC(=O)[C@H](CC(=O)O)NC(=O)[C@H](CC(C)C)NC(=O)[C@H](Cc1ccc(O)cc1)NC(=O)[C@H](CCCCN)NC(=O)[C@H](CO)NC(=O)[C@H](Cc1ccc(O)cc1)NC(=O)[C@H](CC(=O)O)NC(=O)[C@H](CO)NC(=O)[C@@H](NC(=O)[C@H](Cc1ccccc1)NC(=O)[C@@H](NC(=O)CNC(=O)[C@H](CCC(N)=O)NC(=O)C(C)(C)NC(=O)[C@@H](N)Cc1c[nH]cn1)[C@@H](C)O)[C@@H](C)O)C(=O)N[C@@H](C)C(=O)N[C@@H](C)C(=O)N[C@@H](CCC(=O)O)C(=O)N[C@@H](CC(=O)O)C(=O)N[C@@H](Cc1ccccc1)C(=O)N[C@H](C(=O)N[C@@H](CCC(=O)O)C(=O)N[C@@H](Cc1c[nH]c2ccccc12)C(=O)N[C@@H](CC(C)C)C(=O)N[C@@H](CCC(=O)O)C(=O)N[C@@H](CO)C(=O)N[C@@H](C)C(N)=O)C(C)C)C(=O)O
B5: Compound 14 (peptide)
peptide: H-H[Aib]QGTFTSDYSKYLDEK([γGlu-Palmitoyl])RAKDFIEWLLSA-OH
SMILES: CCCCCCCCCCCCCCCC(=O)N[C@@H](CCC(=O)NCCCC[C@H](NC(=O)[C@H](CCC(=O)O)NC(=O)[C@H](CC(=O)O)NC(=O)[C@H](CC(C)C)NC(=O)[C@H](Cc1ccc(O)cc1)NC(=O)[C@H](CCCCN)NC(=O)[C@H](CO)NC(=O)[C@H](Cc1ccc(O)cc1)NC(=O)[C@H](CC(=O)O)NC(=O)[C@H](CO)NC(=O)[C@@H](NC(=O)[C@H](Cc1ccccc1)NC(=O)[C@@H](NC(=O)CNC(=O)[C@H](CCC(N)=O)NC(=O)C(C)(C)NC(=O)[C@@H](N)Cc1c[nH]cn1)[C@@H](C)O)[C@@H](C)O)C(=O)N[C@@H](CCCNC(=N)N)C(=O)N[C@@H](C)C(=O)N[C@@H](CCCCN)C(=O)N[C@@H](CC(=O)O)C(=O)N[C@@H](Cc1ccccc1)C(=O)N[C@H](C(=O)N[C@@H](CCC(=O)O)C(=O)N[C@@H](Cc1c[nH]c2ccccc12)C(=O)N[C@@H](CC(C)C)C(=O)N[C@@H](CC(C)C)C(=O)N[C@@H](CO)C(=O)N[C@@H](C)C(=O)O)[C@@H](C)CC)C(=O)O

Numbered stars: 1 amine (or outer) side, 2 acyl side, 3 side chain; on linkers, the order of the positions; unused ones are H or OH. Square brackets hold non-standard residues; d marks the D form. Side chains are listed from the residue outwards. * marks the point of attachment. γGlu = O=C(O)[C@H](CCC(=O)[*:2])N[*:1]; Palmitoyl = CCCCCCCCCCCCCCCC(=O)*; Aib = CC(C)(N)C(=O)O

Sequence of endogenous glucagon receptor of primary rat hepatocytes (P30082 27-485): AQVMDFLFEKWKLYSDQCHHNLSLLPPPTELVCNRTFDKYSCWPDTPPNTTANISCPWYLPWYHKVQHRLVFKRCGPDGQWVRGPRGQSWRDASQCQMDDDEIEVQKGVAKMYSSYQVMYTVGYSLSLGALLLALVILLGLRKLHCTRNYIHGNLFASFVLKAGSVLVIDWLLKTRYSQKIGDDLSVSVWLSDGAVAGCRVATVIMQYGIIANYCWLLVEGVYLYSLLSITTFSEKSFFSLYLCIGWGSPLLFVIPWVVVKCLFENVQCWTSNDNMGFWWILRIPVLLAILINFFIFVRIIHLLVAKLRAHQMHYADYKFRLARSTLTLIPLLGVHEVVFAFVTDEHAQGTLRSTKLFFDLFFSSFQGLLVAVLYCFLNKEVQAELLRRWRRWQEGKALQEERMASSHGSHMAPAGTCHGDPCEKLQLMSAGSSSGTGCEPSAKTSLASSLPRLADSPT

The target of one assay is T2, human glucagon-like peptide 1 receptor (GLP-1R) (human, UniProt P43220 24-463). The assay can be described thus: cell-based or functional assay.
With B1, the “EC50 hGLP-1R CHO-K1 [nM] (cAMP)” value was found to be 0.87 nM and the “Ratio GLP-1/Glucagon (EC50 hGLP-1R / EC50 hGCGR)” value was found to be 6.2 ratio.
The like results for HXQGTFTSDYSKYLEEXAAKDFIEWLESA (Aib at position 2; Lys 17 K(Hexadecanoyl-isoGlu); C-terminal amide (-NH2)) [Compound 20] were, in that order, 0.23 nM and 0.34 ratio.
With HXQGTFTSDYSKYLDEXAAKDFIEWLESA (D-Ser at position 2; Lys 17 K(Hexadecanoyl-isoGlu); C-terminal amide (-NH2)) [Compound 25], the “EC50 hGLP-1R CHO-K1 [nM] (cAMP)” value was found to be 0.31 nM and the “Ratio GLP-1/Glucagon (EC50 hGLP-1R / EC50 hGCGR)” value amounted to 1.94 ratio.
The like results for B2 were, in that order, 0.27 nM and 3.38 ratio.
For B3, in that order: 0.23 nM and 4.6 ratio.

In another assay the target is T3, human glucagon receptor (Glucagon-R) (human, UniProt P47871 26-477). Kind of assay: cell-based or functional assay.
T3 sequence (P47871 26-477): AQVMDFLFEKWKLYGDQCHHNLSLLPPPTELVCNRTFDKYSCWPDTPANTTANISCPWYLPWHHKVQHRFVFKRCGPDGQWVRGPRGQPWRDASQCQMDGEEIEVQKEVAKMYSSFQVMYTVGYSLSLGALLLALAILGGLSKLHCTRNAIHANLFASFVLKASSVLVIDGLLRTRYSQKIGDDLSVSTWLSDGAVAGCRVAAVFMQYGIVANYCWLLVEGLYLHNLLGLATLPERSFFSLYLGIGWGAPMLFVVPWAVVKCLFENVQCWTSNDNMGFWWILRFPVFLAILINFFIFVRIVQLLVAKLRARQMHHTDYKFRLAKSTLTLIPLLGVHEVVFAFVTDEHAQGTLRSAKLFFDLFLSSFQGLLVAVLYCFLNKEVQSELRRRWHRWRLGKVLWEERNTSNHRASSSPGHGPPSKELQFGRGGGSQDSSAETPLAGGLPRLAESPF
B1: the “EC50 hGCGR CHO-K1 [nM] (cAMP)” value turned out to be 0.14 nM.
In the case of HXQGTFTSDYSKYLEEXAAKDFIEWLESA (Aib at position 2; Lys 17 K(Hexadecanoyl-isoGlu); C-terminal amide (-NH2)) [Compound 20], the “EC50 hGCGR CHO-K1 [nM] (cAMP)” value turned out to be 0.68 nM.
On to HXQGTFTSDYSKYLDEXAAKDFIEWLESA (D-Ser at position 2; Lys 17 K(Hexadecanoyl-isoGlu); C-terminal amide (-NH2)) [Compound 25], for which the “EC50 hGCGR CHO-K1 [nM] (cAMP)” value came out at 0.16 nM.
Still for that read-out and setting: for B2 the value was 0.08 nM; for B3, 0.05 nM.

A further assay concerns the target endogenous glucagon receptor of primary rat hepatocytes (rat, UniProt P30082 27-485). Kind of assay: cell-based or functional assay.
With B1, the “EC50 GLP-1R Rat hepat. [nM] (inhibition of glycogen synthesis)” value is 0.18 nM.
The same measure, in the same setting: as for B4, the figure is 1.85 nM; as for HXQGTFTSDYSKYLEEXAAKDFIEWLESA (Aib at position 2; Lys 17 K(Hexadecanoyl-isoGlu); C-terminal amide (-NH2)) [Compound 20], 0.39 nM.
On the same count and under the same terms, as for HXQGTFTSDYSKYLDEXAAKDFIEWLESA (D-Ser at position 2; Lys 17 K(Hexadecanoyl-isoGlu); C-terminal amide (-NH2)) [Compound 25], the figure is 0.15 nM; as for B2, 0.06 nM; as for B3, 0.18 nM.
The same measure, in the same setting: as for HXQGTFTSDYSKYLDEXAAKDFIEWLESA (Aib at position 2; Lys 17 K(Hexadecanoyl-isoGlu); C-terminal amide (-NH2)) [Compound 15], the figure is 0.17 nM; as for B5, 0.1 nM.

For another assay, the target named is T1, endogenous GLP-1 receptor of a murine …. Kind of assay: cell-based or functional assay.
In the case of B1, the “EC50 GLP-1R (murine insulinoma cells) [nM] (cAMP)” value is 0.99 nM.
The same measure, in the same setting: as for B4, the figure is 0.33 nM; as for HXQGTFTSDYSKYLEEXAAKDFIEWLESA (Aib at position 2; Lys 17 K(Hexadecanoyl-isoGlu); C-terminal amide (-NH2)) [Compound 20], 0.27 nM; as for HXQGTFTSDYSKYLDEXAAKDFIEWLESA (D-Ser at position 2; Lys 17 K(Hexadecanoyl-isoGlu); C-terminal amide (-NH2)) [Compound 25], 0.41 nM.
Same read-out and setting: for B2 the value was 0.33 nM; for B3, 0.89 nM; for HXQGTFTSDYSKYLDEXAAKDFIEWLESA (Aib at position 2; Lys 17 K(Hexadecanoyl-isoGlu); C-terminal amide (-NH2)) [Compound 15], 0.3 nM.
The same measure, in the same setting: for B5 the value was 0.72 nM.

Another assay concerns the target T2, human glucagon-like peptide 1 receptor …. The assay can be described thus: cell-based or functional assay. This is another data set of the same source.
Turning to B4, the “EC50 hGLP-1R CHO-K1 [nM] (cAMP)” value is 0.2 nM and the “Ratio GLP-1/Glucagon (EC50 hGLP-1R / EC50 hGCGR)” value came out at 0.13 ratio.
The like results for HXQGTFTSDYSKYLDEXAAKDFIEWLESA (Aib at position 2; Lys 17 K(Hexadecanoyl-isoGlu); C-terminal amide (-NH2)) [Compound 15] were, in that order, 0.19 nM and 0.31 ratio.
The like results for B5 were, in that order, 0.53 nM and 0.98 ratio.

A further assay deals with T3, human glucagon receptor (Glucagon-R). The assay can be described thus: cell-based or functional assay. This is another data set of the same source.
Take B4: the “EC50 hGCGR CHO-K1 [nM] (cAMP)” value was 1.58 nM.
The same measure, in the same setting: as for HXQGTFTSDYSKYLDEXAAKDFIEWLESA (Aib at position 2; Lys 17 K(Hexadecanoyl-isoGlu); C-terminal amide (-NH2)) [Compound 15], the figure is 0.61 nM.
For the molecule B5, the “EC50 hGCGR CHO-K1 [nM] (cAMP)” value came to 0.54 nM.
